Results on six molecules are retold here after patent US20230322924A1.

Positions count from the first letter of the chain named. Names and notes keep the numbering of the source.

B1: CD3B312 (antibody, V domains shown)
VH: QVQLQQSGPRLVRPSQTLSLTCAISGDSVFNNNAAWSWIRQSPSRGLEWLGRTYYRSKWLYDYAVSVKSRITVNPDTSRNQFTLQLNSVTPEDTALYYCARGYSSSFDYWGQGTLVTVSS
VL: QSALTQPASVSGSPGQSITISCTGTSSNIGTYKFVSWYQQHPDKAPKVLLYEVSKRPSGVSSRFSGSKSGNTASLTISGLQAEDQADYHCCSYAGSGTLLFGGGTKLTVL
B2: CD3B376 (antibody, human IgG4 S228P, lambda, F234A L235A, V domains shown)
VH: B1 VH
VL: QSALTQPASVSGSPGQSITISCTGTSSNIGTYKFVSWYQQHPDKAPKVLLYEVSKRPSGVSSRFSGSKSGNTASLTISGLQAEDQADYHCVSYAGSGTLLFGGGTKLTVLG
B3: BLW-2E6 variant CD3H219/CD3L160 (LC C91L) (antibody, V domains shown)
VH: B1 VH
VL: B1 VL with C91L
B4: BLW-2E6 variant CD3H219/CD3L137 (antibody, V domains shown)
VH: B1 VH
VL: B1 VL with D43G, L49M, L50I, S62N, Q85E, H89Y
B5: monovalent CD3B376 construct (bispecific antibody, part only; not given: unnamed target arm, not shown: another chain or arm of the molecule; small tags and cut ends)
heavy: QVQLQQSGPRLVRPSQTLSLTCAISGDSVFNNNAAWSWIRQSPSRGLEWLGRTYYRSKWLYDYAVSVKSRITVNPDTSRNQFTLQLNSVTPEDTALYYCARGYSSSFDYWGQGTLVTVSSASTKGPSVFPLAPCSRSTSESTAALGCLVKDYFPEPVTVSWNSGALTSGVHTFPAVLQSSGLYSLSSVVTVPSSSLGTKTYTCNVDHKPSNTKVDKRVESKYGPPCPPCPAPEAAGGPSVFLFPPKPKDTLMISRTPEVTCVVVDVSQEDPEVQFNWYVDGVEVHNAKTKPREEQFNSTYRVVSVLTVLHQDWLNGKEYKCKVSNKGLPSSIEKTISKAKGQPREPQVYTLPPSQEEMTKNQVSLTCLVKGFYPSDIAVEWESNGQPENNYKTTPPVLDSDGSFLLYSKLTVDKSRWQEGNVFSCSVMHEALHNHYTQKSLSLSLGK
light: QSALTQPASVSGSPGQSITISCTGTSSNIGTYKFVSWYQQHPDKAPKVLLYEVSKRPSGVSSRFSGSKSGNTASLTISGLQAEDQADYHCVSYAGSGTLLFGGGTKLTVLGQPKAAPSVTLFPPSSEELQANKATLVCLISDFYPGAVTVAWKADSSPVKAGVETTTPSKQSNNKYAASSYLSLTPEQWKSHRSYSCQVTHEGSTVEKTVAPTECS
B6: monovalent CD3B450 construct (bispecific antibody, part only; not given: unnamed target arm, not shown: another chain or arm of the molecule; small tags and cut ends)
heavy: B5 heavy with R10G, R13K, V73I, R79K, T83S, L96V
light: B5 light with D43G, L49M, L50I, S62N, Q85E, H89Y

Chain of human CD3 on human T cells (human) (P07766 23-207 limits assumed): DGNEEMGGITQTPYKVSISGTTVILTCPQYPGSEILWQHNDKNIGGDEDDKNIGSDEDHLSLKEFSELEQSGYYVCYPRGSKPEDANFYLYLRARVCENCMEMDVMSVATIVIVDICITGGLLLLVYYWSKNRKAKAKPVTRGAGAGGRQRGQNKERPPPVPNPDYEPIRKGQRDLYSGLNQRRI

The first test deals with recombinant human CD3ε (1-27) peptide with a C-terminal Tencon25 fusion (human) (UniProt P07766). In words: ProteOn SPR, mAb captured by anti-human Fc, antigen as analyte.
Chain of recombinant human CD3ε (1-27) peptide with a C-terminal Tencon25 fusion (human) (P07766 22-48): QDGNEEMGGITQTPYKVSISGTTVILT
By Kd is commonly meant the constant that tells how readily two partners part at equilibrium. In general, koff refers to a measure of how fast the partners let go of each other. Usually kon stands for the second-order rate constant of association. For B1, the Kd worked out at 20.6 nM, the koff was 0.00187 s⁻¹ and the kon amounted to 90800 M⁻¹ s⁻¹.

On to B2, for which the Kd worked out at 23.3 nM, the koff was determined as 0.00237 s⁻¹ and the kon turned out to be 102000 M⁻¹ s⁻¹.

As to B3, the Kd is 41.1 nM, the koff was 0.00405 s⁻¹ and the kon worked out at 98400 M⁻¹ s⁻¹.

B4: the Kd was determined as 32.9 nM, the koff worked out at 0.00202 s⁻¹ and the kon worked out at 61300 M⁻¹ s⁻¹.

Another test has as its target human CD3 on human T cells (human) (UniProt P07766). In words: Kd = IC50/(1+[T]/KdT) from competition with AF488 SP-34 on human pan T cells.
The molecule B5 registered a Kd of 103 nM.

For B6, the Kd came to 254 nM.

For the next test the target is unchanged. Nature of the test: competition with AF488 SP-34 tracer on human pan T cells, flow cytometry.
For orientation: IC50 means the concentration that inhibits the measured activity by half. A lower IC50 goes with inhibition by little substance. Consider B5, for which the IC50 amounted to 409 nM. In other words, the sub-micromolar range.

B6 came in with an IC50 of 1010 nM. This IC50 lies about 2.5-fold higher than the previous one.
